One may read the IC50 as the concentration that gives 50% inhibition.

Consider one molecule from patent US20250230222A1 (NORTHWESTERN UNIVERSITY, published 2025).

This experiment addresses SARS-nCoV-2 Spike RBD (Raybiotech, catalog no. 230-30162), recombinant wildtype (SARS-CoV-2, UniProt P0DTC2 319-541).

A value given as a limit tells only on which side of the number the result lay.

B1: IgG 106/107 (antibody, V domains shown)
VH: EVQLVESGGGLVQPGGSLRLSCVASGITVSANYMSWVRQAPGKGLEWVSVIYSGGSTFYADSVKGRFTISRDNSKNTLYLQMNNLRADDTAVYSCARDFRGATAFDIWGQGTMVTVSS
VL: QSALTQPASVSGSPGQSITISCTATSSDVDDYNYVSWYQQHPGKAPKLLIYDVNNRPSGVSNRFSGSKSGNTASLTISGLQAEDEADYYCSSYTSSSTGVFGSGTKVTVLG
B1: the IC50 is below 0.5 nM.
